These results are taken from PMC5818060 (Journal of Cell Science, 2018).

For one data set, the system named is CK1ε. As to the kind of experiment: Mass spectrometric detection of DDX3X phosphorylation by CK1ε in vitro. The format is biochemical, human. Set-up: key to Probability of phosphorylation, T469 (symbol) / Probability of phosphorylation, S470 (symbol) / Probability of phosphorylation, S429 (symbol): –: no phosphorylation detected. Conditions: phosphorylated by CK1ε in vitro; tryptic digestion, MS. The procedure:
(§1) Kinase assays were carried out essentially as described ([Cruciat et al., 2013]). For kinase assays, full-length DDX3X protein was expressed and purified from HEK293T cells as described for the ATPase assay. Deletion constructs were purified from E. coli. The eluted proteins were visualized using Coomassie Blue and the intensity of the protein bands was measured using ImageJ. The amounts used for kinase assays were estimated based on this staining. Where indicated, dsRNA was premixed with proteins at room temperature (RT) for 15 min before subjecting samples to radioactive kinase assays. The CK1 substrate peptide […] for the kinase assay and samples was analyzed using p81 phosphocellulose (Biomol) as described ([Zhai et al., 1992]). 0.3 µM CK1δ/ε-derived and control peptides were used ([Schacherl et al., 2015]). For mass spectrometric analyses DDX3X helicase core (His-DDX3X^168-582) as well as the C-terminal helicase domain (His-DDX3X^414-582) were in vitro phosphorylated by CK1ε. Also, reactions without addition of kinase were performed and analyzed in order to correct for false-positive results. Mass spectrometry data acquisition and analysis of trypsin-digested samples were performed at the Core Unit Mass Spectrometry and Proteomics (Ulm University) essentially as described in [Meng et al. (2016)].

The test system of data set [1] is Dvl phosphorylation in HEK293T cells. As to the kind of experiment: Dvl phosphorylation shift on Western blot. The format is cell-based, human. The settings on record: 50 or 100 ng Flag-DDX3X DNA.
The subject of data set [2] is endogenous CK1 / CK1 sensor in HEK293T cells. As to the kind of experiment: CK1 FRET biosensor, microplate reader FRET/CFP ratio. It is filed as cell-based, human. The settings on record: HEK293T, n=3. As for the experimental part:
HEK293T cells were seeded at a density of 20,000 cells/well on 96-well black microplates (PS, μClear, clear bottom, chimney well, Greiner No. 655090). Transfection was performed as described above. Unless indicated otherwise, the respective cell populations were transfected with 50-100 ng CK1 FRET biosensor, 100 ng regulator (i.e. N-Flag DDX3X) and 1-10 ng kinase (i.e. N-Flag CK1ε). Either empty pCS2 N-Flag vector or luciferase were used to transfect the same amount of DNA in every well. Generally, the different samples were run in triplicate for each individual experiment. […]
Where applicable, the small-molecule CK1 inhibitor D4476 (BioVision) was added to the cells 2-4 h prior to the analysis. […] Analysis was performed 48-60 h after transfection on an Infinite M1000 PRO microplate reader (Tecan) by exciting CFP with a wavelength of 433 nm and measuring the resulting emission at 460-600 nm in 2 nm increments. Fluorometric spectra were background subtracted with spectra recorded from wells with non-transfected cells. Resulting FRET/CFP ratios were calculated by dividing the intensity values at the respective peaks (478 nm for CFP, 528 nm for YFP) and analyzed essentially as described ([Fritz et al., 2013]). […]

The test system of another data set is DDX3X. As to the kind of experiment: ATPase assay of DDX3X. It is filed as biochemical, human. The settings on record: full-length Flag-DDX3X, dsRNA 17-68 nM, 37°C, 40 min, 1 mM ATP; n=3. The procedure: For the ATPase assay, Flag-tagged DDX3X full-length constructs were expressed in HEK293T cells. After purifying and eluting DDX3X from the beads, an aliquot of the eluates was resolved by SDS-PAGE in order to monitor the different DDX3X levels via western blotting and ImageJ. Based on this comparison, similar amounts of full-length DDX3X protein were used. Approximately 100 ng Flag-DDX3X protein and 10 ng His-CK1ε were used in a 60 μl reaction mix (reaction buffer: 20 mM Tris-HCl, pH 7.4, 200 mM NaCl, 0.5 mM DTT, 1 mM MgCl2, 1 mM ATP) with dsRNA (17 nM, 34 nM, 68 nM); the reaction was carried out at 37°C for 40 min. To phosphorylate DDX3X, 500 ng His-CK1εΔC or His-CK1εΔC^K38R were added in kinase buffer before eluting the DDX3X protein from the Sepharose magnetic Flag beads (Sigma). Incubation was performed at 37°C for 30 min. Then, beads were washed with 50 mM Tris-HCl, pH 7.5 and 500 mM NaCl before elution with Flag peptide. Termination of the helicase reaction was done with 10 μl of 50% TCA solution added to each reaction followed by centrifugation at 3000 g for 5 min at 4°C. Reaction mix was mixed with coloring solution (35 mM ammonium molybdate, 10 mM zinc acetate, 10% ascorbic acid, pH 5) in a 96-well plate before analysis using a spectrometer (wavelength 700 nm).

Data set [3] deals with DDX3X-stimulated CK1ε (CK1εΔC). As to the kind of experiment: In vitro radioactive kinase assay, DDX3X-stimulated CK1ε activity. Conditions: recombinant DDX3X, CK1 peptide substrate, radioactive; n=3. The format is biochemical, human. As for the experimental part:
as §1

Positions count from the first letter of the chain named. Names and notes keep the numbering of the source.

B1: His-DDX3X^168-582: DDX3X helicase core (aa 168–582), 6× histidine tag (protein, UniProt O00571 168-582, looked up, fragment)
chain: VEATGNNCPPHIESFSDVEMGEIIMGNIELTRYTRPTPVQKHAIPIIKEKRDLMACAQTGSGKTAAFLLPILSQIYSDGPGEALRAMKENGRYGRRKQYPISLVLAPTRELAVQIYEEARKFSYRSRVRPCVVYGGADIGQQIRDLERGCHLLVATPGRLVDMMERGKIGLDFCKYLVLDEADRMLDMGFEPQIRRIVEQDTMPPKGVRHTMMFSATFPKEIQMLARDFLDEYIFLAVGRVGSTSENITQKVVWVEESDKRSFLLDLLNATGKDSLTLVFVETKKGADSLEDFLYHEGYACTSIHGDRSQRDREEALHQFRSGKSPILVATAVAARGLDISNVKHVINFDLPSDIEEYVHRIGRTGRVGNLGLATSFFNERNINITKDLLDLLVEAKQEVPSWLENMAYEHHYKG
modifications: N-terminal 6xHis tag
notes: DDX3X helicase core (aa 168–582), 6× histidine tag
In the case of B1, in the data set with CK1ε, the “Probability of phosphorylation, S429” value was determined as 100%; the “Probability of phosphorylation, S470 (symbol)” value is given as “–”; the “Probability of phosphorylation, S543” value is listed as 88.7%; the “Probability of phosphorylation, T469 (symbol)” value is “–”.

B2: DDX3X: human DEAD box RNA helicase DDX3X (UniProt O00571) (protein)
chain: MSHVAVENALGLDQQFAGLDLNSSDNQSGGSTASKGRYIPPHLRNREATKGFYDKDSSGWSSSKDKDAYSSFGSRSDSRGKSSFFSDRGSGSRGRFDDRGRSDYDGIGSRGDRSGFGKFERGGNSRWCDKSDEDDWSKPLPPSERLEQELFSGGNTGINFEKYDDIPVEATGNNCPPHIESFSDVEMGEIIMGNIELTRYTRPTPVQKHAIPIIKEKRDLMACAQTGSGKTAAFLLPILSQIYSDGPGEALRAMKENGRYGRRKQYPISLVLAPTRELAVQIYEEARKFSYRSRVRPCVVYGGADIGQQIRDLERGCHLLVATPGRLVDMMERGKIGLDFCKYLVLDEADRMLDMGFEPQIRRIVEQDTMPPKGVRHTMMFSATFPKEIQMLARDFLDEYIFLAVGRVGSTSENITQKVVWVEESDKRSFLLDLLNATGKDSLTLVFVETKKGADSLEDFLYHEGYACTSIHGDRSQRDREEALHQFRSGKSPILVATAVAARGLDISNVKHVINFDLPSDIEEYVHRIGRTGRVGNLGLATSFFNERNINITKDLLDLLVEAKQEVPSWLENMAYEHHYKGSSRGRSKSSRFSGGFGARDYRQSSGASSSSFSSSRASSSRSGGGGHGSSRGFGGGGYGGFYNSDGYGGNYNSQGVDWWGN
modifications: left off: Flag, N-terminal, kept
Turning to B2, the “stimulation of Dvl phosphorylation” value in data set [1] was “the wild-type protein alone could not”. Further, the “cooperation of DDX3X with co-expressed CK1 isoforms (FRET/CFP ratio)” value in data set [2] (CK1 sensor with CK1 isoform) was “predominantly synergized with limiting amounts of CK1ε rather than with CK1δ and CK1α isoforms”. Also, in data set [2] (DDX3X without added CK1), the “effect of co-expressed DDX3X on FRET/CFP ratio of CK1 sensor” value is reported as “not sufficient to significantly enhance endogenous CK1 activity”.

B3: CK1εΔC: CK1ε lacking the C-terminal 112 amino acids, constitutively active (protein, UniProt P49674 1-304, looked up, fragment)
chain: MELRVGNKYRLGRKIGSGSFGDIYLGANIASGEEVAIKLECVKTKHPQLHIESKFYKMMQGGVGIPSIKWCGAEGDYNVMVMELLGPSLEDLFNFCSRKFSLKTVLLLADQMISRIEYIHSKNFIHRDVKPDNFLMGLGKKGNLVYIIDFGLAKKYRDARTHQHIPYRENKNLTGTARYASINTHLGIEQSRRDDLESLGYVLMYFNLGSLPWQGLKAATKRQKYERISEKKMSTPIEVLCKGYPSEFSTYLNFCRSLRFDDKPDYSYLRQLFRNLFHRQGFSYDYVFDWNMLKFGAARNPEDV
modifications: His tag
With B3, the “effect of CK1ε protein on RNA-stimulated ATPase activity of DDX3X” value in the data set with DDX3X was “much less stimulated by dsRNA”.

B4: CK1εΔC^K38R: kinase-dead mutant of CK1εΔC (protein, UniProt P49674 1-416, looked up, variant K38R del305-416)
Casein kinase I isoform …: B3 chain with K38R
modifications: His tag
Take B4: the “effect of CK1ε protein on RNA-stimulated ATPase activity of DDX3X” value in the data set with DDX3X was “still allowed dsRNA stimulation of the ATPase activity”.

B5: His-DDX3X^414-582: C-terminal helicase domain of DDX3X (aa 414–582), 6× histidine tag (protein)
chain: NITQKVVWVEESDKRSFLLDLLNATGKDSLTLVFVETKKGADSLEDFLYHEGYACTSIHGDRSQRDREEALHQFRSGKSPILVATAVAARGLDISNVKHVINFDLPSDIEEYVHRIGRTGRVGNLGLATSFFNERNINITKDLLDLLVEAKQEVPSWLENMAYEHHYKG
modifications: left off: His, end not stated, kept
notes: C-terminal helicase domain of DDX3X (aa 414–582), 6× histidine tag
In the case of B5, in the data set with CK1ε, the “Probability of phosphorylation, S429 (symbol)” value is given as “–”; the “Probability of phosphorylation, S470” value worked out at 100%; the “Probability of phosphorylation, S543” value turned out to be 92.7%; the “Probability of phosphorylation, T469” value amounted to 100%. Also, the “stimulation of CK1ε kinase activity in vitro” value in data set [3] was “sufficient to stimulate CK1ε∆C activity”.
